Experimental data as given in patent publication US20230218710A1 (COHBAR, published 2023).
Square brackets hold non-standard residues; d marks the D form. Primed or numbered codes have the meaning given here. Ends that are not written are not given here. PEG12″ = polyethylene glycol with 12 units (PEG-12)

T1: Apelin Receptor (APJ) stably overexpressed in CHO-K1 AGTRL1 Gi cells (UniProt P35414 1-380, limits assumed)
T1 sequence (looked up): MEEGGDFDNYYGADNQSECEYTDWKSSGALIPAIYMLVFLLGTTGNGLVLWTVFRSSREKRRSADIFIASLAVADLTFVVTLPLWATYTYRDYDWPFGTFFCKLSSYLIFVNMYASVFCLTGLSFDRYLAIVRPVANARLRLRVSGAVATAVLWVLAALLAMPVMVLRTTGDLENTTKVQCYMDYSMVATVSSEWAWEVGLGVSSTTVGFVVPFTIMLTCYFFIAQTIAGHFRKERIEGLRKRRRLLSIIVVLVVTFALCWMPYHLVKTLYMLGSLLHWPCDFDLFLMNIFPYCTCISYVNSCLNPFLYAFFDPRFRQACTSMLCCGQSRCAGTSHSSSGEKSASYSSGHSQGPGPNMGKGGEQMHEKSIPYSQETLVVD

B1: SEQ ID NO: 63 (peptide)
peptide: Ac-RRMMGMVFQSLCG[dA]-NH2
B2: SEQ ID NO: 23 (peptide)
peptide: RRMVFQCLEG[dA]
B3: SEQ ID NO: 19 (peptide)
peptide: RRMVFQCLCG[dA]
modifications: cysteine pairing not given here
B4: SEQ ID NO: 24 (peptide)
peptide: RRMVYQCLEG[dA]
B5: SEQ ID NO: 56 (peptide)
peptide: RRMMGMV
B6: SEQ ID NO: 30 (peptide)
peptide: RRMMGMVAQCLEG[dA]
B7: SEQ ID NO: 20 (peptide)
peptide: KRRMMGMVFQCLCGA
modifications: (PEG12) at the N-terminal K; C-terminal (dA) = D-alanine
B8: SEQ ID NO: 27 (peptide)
peptide: RRMAYQCLEG[dA]
B9: SEQ ID NO: 55 (peptide)
peptide: RRMMGM
B10: SEQ ID NO: 16 (peptide)
peptide: RRMMGMVFQCLSG[dA]
B11: SEQ ID NO: 29 (peptide)
peptide: RRMMGMVYQCLEG[dA]
B12: SEQ ID NO: 31 (peptide)
peptide: RRMEVYQCLCG[dA]
modifications: cysteine pairing not given here; also: places D-Ala at position 13
B13: SEQ ID NO: 32 (peptide)
peptide: RRMEVYQCLEG[dA]
B14: SEQ ID NO: 33 (peptide)
peptide: RRLLGLVFQSLCG[dA]
B15: SEQ ID NO: 61 (peptide)
peptide: Ac-RRMMGMVFQSLCG[dA]
B16: SEQ ID NO: 54 (peptide)
peptide: RMMGMVFQSLCG[dA]
B17: SEQ ID NO: 52 (peptide)
peptide: RMMGMVFQS
B18: SEQ ID NO: 60 (peptide)
peptide: RRMMGMVFQSL
B19: SEQ ID NO: 21 (peptide)
peptide: RRMMGMVFQCLCG[dA]K(PEG12″)
modifications: cysteine pairing not given here
B20: SEQ ID NO: 59 (peptide)
peptide: RRMMGMVFQS
B21: SEQ ID NO: 17 (peptide)
peptide: RRMMGMVFQSLSG[dA]
B22: SEQ ID NO: 25 (peptide)
peptide: RREMVYQCLCG[dA]
modifications: cysteine pairing not given here
B23: SEQ ID NO: 8 (peptide)
peptide: RRMMGMVFQCLCG[dA]
modifications: cysteine pairing not given here
B24: SEQ ID NO: 62 (peptide)
peptide: RRMMGMVFQSLCG[dA]-NH2
B25: SEQ ID NO: 26 (peptide)
peptide: RREMVYQCLEG[dA]
B26: SEQ ID NO: 57 (peptide)
peptide: RRMMGMVF
B27: SEQ ID NO: 18 (peptide)
peptide: RRXXGXVFQCLCGA
modifications: (Nle) = norleucine at positions 3, 4 and 6; C-terminal (dA) = D-alanine
B28: SEQ ID NO: 22 (peptide)
peptide: RRMVYQCLCG[dA]
modifications: cysteine pairing not given here
B29: SEQ ID NO: 58 (peptide)
peptide: RRMMGMVFQ
B30: SEQ ID NO: 53 (peptide)
peptide: RMMGMVFQSL
B31: SEQ ID NO: 28 (peptide)
peptide: RRMGYQCLEG[dA]

Assays:
[1] = molecular target: T1, Apelin Receptor (APJ) stably …; experiment: cell-based or functional assay
[2] = molecular target: ProLink tagged human APJ (Apelin Receptor) in CHO-K1 AGTRL1 β-Arrestin cells (human, UniProt P35414 1-380); experiment: cell-based or functional assay

Binder	inhibition of forskolin-induced cAMP, Percent of Pyr-Apelin-13 Control Activity (10 µM peptide) [1]	β-Arrestin recruitment, Percent of Apelin-13 Control Activity (10 µM peptide) [2]
B1	21%	9%
B2	-4%	0%
B3	27%	1%
B4	16%	-1%
B5	-2%	0%
B6	31%	-1%
B7	37%	1%
B8	9%	-1%
B9	-7%	1%
B10		0%
B11	21%	0%
B12	2%	0%
B13	4%	0%
B14	27%	9%
B15	1%	5%
B16	20%	1%

Binder	inhibition of forskolin-induced cAMP, Percent of Pyr-Apelin-13 Control Activity (10 µM peptide) [1]	β-Arrestin recruitment, Percent of Apelin-13 Control Activity (10 µM peptide) [2]
B17	15%	0%
B18	16%	0%
B19	34%	1%
B20	-2%	0%
B21	26%	10%
B22	3%	-1%
B23	64%	17%
B24	27%	2%
B25	29%	0%
B26	-1%	0%
B27	30%	1%
B28	62%	0%
B29	5%	0%
B30	6%	1%
B31	3%	-1%
